Data as given in US20240010704A1, “CHIMERIC SENSOR PROTEIN AND METHODS OF USE THEREOF” (Universitaet Leipzig, priority 2020, published 2024).

Legend:
[1] = system: lexAop-FLuc reporter in Drosophila Schneider 2 (S2) cells; test: Luciferase (lexAop-FLuc) reporter assay of NRS sensor constructs in S2 cells; assay type: cell-based; conditions: S2 cells; FIG. 9
Source text: In order to conceptually establish the approach to fuse heterologous ECRs to the Notch^ITS to suppress its proteolytic activation, a sensor protein containing 4 immunoglobulin (Ig) domains of the human CD4 receptor fused to the Notch^ITS was engineered^28 (FIG. 7A).
As a positive control a constitutively active N^ECN-LexA receptor^34 with a constantly exposed S2 cleavage site was included (FIG. 7A,B).
Next, the extracellular CD4 repeats of the sensor protein were replaced with the ECR of an aGPCR, the Latrophilin/ADGRL-homolog CIRL/CG8639 (calcium independent receptor of α-latrotoxin) to enable the NRS to detect the physical dissociation of the NTF-CTF complex within the GAIN domain when appended to the Notch^ITS. Thus, the entire ECR of CIRL (including the GAIN domain, GPS, tethered agonist segment and predicted linker to the 7TM domain) was N-terminally fused to the NRS core (CIRL-NRS-LexA; FIG. 9). […] In order to distinguish between these two possibilities, we mutated the GPS of the sensor at the −2 position of its catalytic triad and replaced the conserved Histidin by an Alanine (FIG. 9) to block GAIN domain self-cleavage and eventual NTF release. […] This set of experiments establishes that the CIRL-NRS-LexA NRS can be used for monitoring the integrity of the NTF-CTF heterodimer clamped by the GAIN domain of CIRL.
For transfection, mini- or midi-prepped plasmid DNA (Qiagen) for each construct was adjusted to a stock concentration 100 ng/μl using a nanophotometer (Implen). For individual transfections a total amount of 200 ng DNA per 96-well plate well was used and always contained 30 ng of lexAop>FLuc2 (test construct reporter) and Act5.1Cp>RLuc (transfection control reporter), respectively. Test constructs (X-NRS-LexA) and TEV protease plasmids were added at 1:1 ratio (equimolarly adjusted to lexAop>FLuc2) to the DNA mixes; each DNA mix was supplemented with empty pBSK-SK+ vector (Stratagene) to 200 ng. S2 cells were cultured in Schneider's Drosophila medium (Invitrogen, Cat. no. 21720-024). Cultures were maintained in an air incubator at 25° C. S2 cells were split and plated into individual wells of a 96-well plate at a concentration of 5×10^5/well on day 0. 24 hours after plating (day 1), cells were transfected with Lipofectamine 2000 (Invitrogen, #11668019) with the suitable 1:1 plasmid/reagent mixture according to manufacturer's instructions and incubated for 48 hours. When induction of the metallothionein-promoter was required, CuSO4 stock medium was added in each well of the experiment to a final concentration of 0.5 mM CuSO4 24 hrs after transfection (day 2).
Cells were lysed on day 3 (48 hrs after transfection) and luciferase measurements with the Dual-Glo luciferase assay system (Promega) were performed according to the manufacturer's protocol. […] Lysates were analyzed in 96-well plates with a Victor2 plate reader luminometer (PerkinElmer). Firefly and Renilla luciferase luminescence signals were collected for 10 s. Relative luciferase activities were calculated for each sample individually as principally described in Potter et al. (ref. 23) according to the following formula: […]
where n=number of control samples; F=Firefly luciferase luminescence signal; R=Renilla luciferase luminescence signal; Empty=lexAop>FLuc2+Ac5.1p>RLuc+BSK-SK+. Each condition was executed at least in triplicate, the average and SEM were determined for each condition, and statistical significance was evaluated using Student's t test. […]

Drosophila melanogaster = test: In vivo expression analysis of genomically integrated cirl-NRS sensors (transcriptionally activated mCherry reporter); conditions: adult animals; FIG. 11
Source text: To test the utility of the NRS sensor principle in vivo, an existing genomic engineering platform^13,35 was used to encode NRS sensors in alleles of the adhesion GPCR cirl/CG8639 of Drosophila melanogaster. This places CIRL-NRS expression under the endogenous regulatory control of the cirl locus (FIG. 10A). The NRS design was adapted to generate minigenes for cirl-NRS-LexA, cirl^H>A-NRS-LexA and cirl-NRS^S3-LexA by fusing the genomic fragment encoding the CIRL-ECR to the NRS-LexA cDNA (FIG. 10A,B). The resulting transgenes were inserted in the cirl gene using phiC31-assisted transformation generating fly stocks expressing the different sensors variants from the cirl locus.
Next, the functionality of CIRL-NRS was further studied in anatomical expression analyses.
To control for potential misexpression inherent to the LexA transcriptional reporter, additional cirl-NRS transgenes alternatively terminating in Ga/4 or QF2 transcription factor cassettes were generated an analysed.

B1: CIRL-NRS^S3-LexA: NTF release sensor for dmCIRL, S3 cleavage site mutated (disabled γ-secretase recognition) (protein)
chain: MKLCILLAVVAFVGLSLGETGFPKSLSVLNSRCAHKQSCGVLAATSMFGDPCPGTHKYLEAHYQCISAAQTSTTTNRPSPPPWVLSNGPPIFGNGSGLIHPPGVGAGAPPPPRLPTLPGVVGISGNPGLFNVPPQHTAVTHSTPSSSTTAVGGGRLKGGATSTTTTKHPAGRHDGLPPPPQLHHHHNHHGEDTASPTKPSSKLPAGGNATSPSNTRILTGVGGSGTDDGTLLTTKSSPNRPPGTAASGSVVPGNGSVVRTINNINLNAAGMSGGDDESKLFCGPTHARNLYWNMTRVGDVNVQPCPGGAAGIAKWRCVLMKRIPDSGYDEYDDDISSTTPAPSGGDCLHNSSSCEPPVSMAHKVNQRLRNFEPTWHPATPDLTQCRSLWLNNLEMRVNQRDSSLISIANDMSEVTSSKTLYGGDMLVTTKIIQTVSEKMMHDKETFPDQRQREAMIMELLHCVVKTGSNLLDESQLSSWLDLNPEDQMRVATSLLTGLEYNAFLLADTIIRERSVVQKVKNILLSVRVLETKTIQSSVVFPDSDQWPLSSDRIELPRAALIDNSEGGLVRIVFAAFDRLESILKPSYDHFDLKSSRSYAILSNDSDVNAGEIQQRLRILNSKVISASLGKGRHIQLSQPITLTLKHLKTENVTNPTCVFWNYIDHAWSANGCSLESTNRTHSVCSCNHLTNFAILMDVVDEHQHSLFTMFDGNMRPRIDTAAKHQLRNDFQIHSVRGIKNPGDEDNGEPPANVKYVITGIILVIIALAFFGMKLSTQRKRSGPPKLKALTARQQEVFDLIRDHISQTGMPPTRAEIAQRLGFRSPNAAEEHLKALARKGVIEIVSGASRGIRLLQEEEEGLPLVGRVAAGEPLLAQQHIEGHYQVDPSLFKPNADFLLRVSGMSMKDIGIMDGDLLAVHKTQDVRNGQVVVARIDDEVTVKRLKKQGNKVELLPENSEFKPIVVDLRQQSFTIEGLAVGVIRNGDWLEFPGIRRPAGIPGDLAPPTDVSLGDELHLDGEDVAMAHADALDDFDLDMLGDGDSPGPGFTPHDSAPYGALDMADFEFEQMFTDALGIDEYGGASRYLDPAFLYKVVSSATMDYKDHDGDYKDHDIDYKDDDDKHRST
modifications: Full-length NTF release sensor for dmCIRL (S3 cleavage site mutated)
reporter activity in luciferase assays [1]: no reporter activity
sensor activity (lexAop-mCherry reporter expression) (Drosophila melanogaster): completely abrogated
